No end group written: not given here.
T1: FXR-LBD GST-fused
T1 sequence (Q96RI1 whole entry, species assumed, looked up): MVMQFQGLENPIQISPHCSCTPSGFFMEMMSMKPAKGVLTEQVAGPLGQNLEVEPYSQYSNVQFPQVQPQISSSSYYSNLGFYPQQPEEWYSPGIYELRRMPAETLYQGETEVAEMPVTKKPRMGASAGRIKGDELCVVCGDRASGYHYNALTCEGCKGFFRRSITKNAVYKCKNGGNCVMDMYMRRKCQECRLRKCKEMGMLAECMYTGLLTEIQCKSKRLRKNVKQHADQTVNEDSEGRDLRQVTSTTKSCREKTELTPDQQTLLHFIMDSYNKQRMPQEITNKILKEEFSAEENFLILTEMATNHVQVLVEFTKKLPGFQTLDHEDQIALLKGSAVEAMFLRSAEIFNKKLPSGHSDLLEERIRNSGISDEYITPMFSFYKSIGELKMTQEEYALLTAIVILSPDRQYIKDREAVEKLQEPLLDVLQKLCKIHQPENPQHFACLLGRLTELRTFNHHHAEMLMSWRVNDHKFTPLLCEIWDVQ

T2: PPARα LBD GST fused
T2 sequence (Q07869 whole entry, species assumed, looked up): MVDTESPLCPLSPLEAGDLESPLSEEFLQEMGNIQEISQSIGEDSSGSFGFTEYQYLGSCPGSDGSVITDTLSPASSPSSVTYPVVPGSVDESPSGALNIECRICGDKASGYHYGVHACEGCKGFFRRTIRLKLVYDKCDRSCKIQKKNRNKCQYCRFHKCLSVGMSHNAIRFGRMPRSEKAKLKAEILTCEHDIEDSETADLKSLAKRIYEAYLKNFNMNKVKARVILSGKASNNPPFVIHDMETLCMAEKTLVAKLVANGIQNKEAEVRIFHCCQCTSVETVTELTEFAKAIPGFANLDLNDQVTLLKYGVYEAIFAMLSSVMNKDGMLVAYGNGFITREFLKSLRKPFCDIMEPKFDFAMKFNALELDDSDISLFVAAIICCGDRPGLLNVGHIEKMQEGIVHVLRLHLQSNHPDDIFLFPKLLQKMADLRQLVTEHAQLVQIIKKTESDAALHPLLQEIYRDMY

B1: biotinylated SRC1 peptide (peptide)
peptide: CPSSHSSLTERHKILHRLLQEGSPS
modifications: also: biotin, position not given here

What was measured:
[1] = Microsomal stability in human liver microsomes; assay type: in vitro ADME
Description: Chemical stability in HCl Buffer, PBS buffer and culture medium (EMEM) was evaluated by LC-MS dissolving compound 1 at 10 μM (final concertation) in cited buffers and injecting aliquots removed from incubations at different time points. Microsomal stability was evaluated employing 50 mM potassium phosphate buffer (pH 7.4) containing 0.15 mg of Human liver microsomes (Sigma-Aldrich, St. Louis, MO, United States) 5 mM MgCl2, 1 mM NADPH, 5 mM glucose 6-phosphate, 0.4 U·mL^−1 glucose 6-phosphate dehydrogenase. Compounds were tested at 1 µM final concentration. Aliquots, removed at different time points, were diluted with ice-cold acetonitrile and analyzed by LC-MS.

U937 cells = test: Pro-inflammatory gene expression (qRT-PCR) in LPS-activated U937 cells; assay type: cell-based, human; settings: LPS 100 ng/mL, 18 h, BAR502 and clofibrate 5 and 10 μM, compound 1 10 μM
Description: U937 cell line were cultured in RPMI 1640 supplemented with 10% FBS, 1% glutamine, and 1% penicillin/streptomycin and were regularly passaged to maintain exponential growth. After 24 h of starvation cells were classically activated with LPS (100 ng/mL; Sigma-Aldrich, St. Louis, MO), and exposed or not to BAR502, clofibrate and compound 1 at the concentration of 5 and 10 μM for 18 h. At the end of the experiment the cells were recovered. Total mRNA extraction from U937 and 3T3.L1 was performed using Tri-Reagent (Zymo Research) and Direct-zolTM RNA MiniPrep w/Zymo-SpinTM IIC Columns (Zymo Research, Irvine, CA). After purification from genomic DNA using DNase I (Thermo Fisher Scientific, Waltham, MA), 1 μg of RNA from each sample was reverse transcribed using Kit […] Basic (Nippon Genetics, […] 20-μL of reaction volume; 50 ng of cDNA was amplified in a 20-μL solution containing 200 nM each primer and 10 μL of PowerUpTM SYBRTM Green Master Mix (Thermo Fisher Scientific, Waltham, MA). All reactions were performed in triplicate using the following thermal cycling conditions: 3 min at 95°C, followed by 40 cycles of 95°C for 15 s, 56°C for 20 s, and 72°C for 30 s, using a QuantStudio 3 system (Applied Biosystems, Foster City, CA). The relative mRNA expression was calculated accordingly to the ΔCt method. Primers were designed using the software PRIMER3 (http://frodo.wi.mit.edu/primer3/) using published data obtained from the NCBI database. The primer used were as following (forward and reverse): hGAPDH (for […]-1β (for [NT], hIL6 (for [NT] hCXCL2 (for [NT] hTNFα; (for [NT], mAdiponectin (for […]ɤ (for [NT], mCebp (for [NT]

FXR-LBD GST-fused = molecular target: T1, FXR-LBD GST-fused; test: AlphaScreen or HTRF; coactivator recruitment; 10 nM GST-FXR-LBD, 30 nM biotinylated SRC1 peptide, 20 μg/mL donor and acceptor beads; 50 mM Tris-HCl pH 7.4, 20 mM KCl, 1 mM DTT, 0.1% BSA; 25 μL, 384 wells; compounds at 10 μM for efficacy (% vs. CDCA), concentration-response for EC50
PPARα LBD GST fused = molecular target: T2, PPARα LBD GST fused; test: AlphaScreen or HTRF; coactivator recruitment; 20 nM GST-PPARα-LBD, 60 nM biotinylated SRC1 peptide, 20 μg/mL donor and acceptor beads; 50 mM MOPS, 50 mM NaF, 0.05 mM CHAPS, 0.05% BSA, pH 7.4; 25 μL, 384 wells; compounds at 50 μM for efficacy (% vs. fenofibrate)

Molecule	Time to conversion in clofibric acid in human microsomes [1]	IL-1β mRNA expression (U937 cells)	IL-6 mRNA expression (U937 cells)	EC50 of compound 1 for SRC-1 recruitment (the compound is titrated) (FXR-LBD GST-fused)	EC50 of compound 3 for SRC-1 recruitment (the compound is titrated) (FXR-LBD GST-fused)	EC50 of the compound BAR502 for SRC-1 recruitment (the compound is titrated) (FXR-LBD GST-fused)	efficacy of SRC-1 recruitment with BAR502 (% vs. CDCA) (FXR-LBD GST-fused)	efficacy of SRC-1 recruitment with compound 1 (% vs. CDCA) (FXR-LBD GST-fused)	efficacy of SRC-1 recruitment with compound 3 (% vs. CDCA) (FXR-LBD GST-fused)	efficacy of SRC-1 recruitment with BAR502 (% vs. fenofibrate) (% vs. fenofibrate) (PPARα LBD GST fused)	efficacy of SRC-1 recruitment with BAR505 (% vs. fenofibrate) (% vs. fenofibrate) (PPARα LBD GST fused)
CCOC(=O)C(C)(C)Oc1ccc(Cl)cc1 [clofibrate]	≤ 30 min	reducing the expression of pro-inflammatory cytokines	reducing the expression of pro-inflammatory cytokines								
B1				3.4 µM	17.9 µM	0.69 µM	153 % vs. CDCA	79 % vs. CDCA	48 % vs. CDCA	36	40
